According to paper PMC11661108 (bioRxiv, 2024):
Where “and” joins values, the source holds several entries; their conditions need not be identical. Equal entries are not always repeated.

Assays:
Assay in all cases: BLI
RBD of SARS-CoV-2 BA.1 = RBD of SARS-CoV-2 BA.1 (SARS-CoV-2 Omicron BA.1, strain, biotin (Avi tag))
RBD of SARS-CoV-2 HV.1 = RBD of SARS-CoV-2 HV.1 (SARS-CoV-2 Omicron HV.1, strain, biotin (Avi tag))
RBD of SARS-CoV-2 EG.5.1 = RBD of SARS-CoV-2 EG.5.1 (SARS-CoV-2 Omicron EG.5.1, strain, biotin (Avi tag))

B1: Fab-52 (Fab, V domains shown)
VH: EVQLVQSGGDLAPPGGSLRLSCEASGIIVSSNYMTWVRQAPGKGLEWVSLIFAGGSTFYADSVKGRFTVSRDNSKNTLYLQMSSLKPEDTAVYFCARDLREMGGLDFWGQGALVTVSS
VL: DIQMTQSPSSVSASIGDTVTITCRASQGIPSWVAWYQQKPGKAPKLLIYGASNLQRGVPSRFSGSGSGTDFTLTISSLQPEDLAVYYCHQSDSLPGIFGGGTKVEIK
RBD of SARS-CoV-2 BA.1
  Kd: 1.1 nM
RBD of SARS-CoV-2 HV.1
  Kd: 12.2 nM and 9.1 nM
RBD of SARS-CoV-2 EG.5.1
  Kd: 10 nM and 7 nM
